Assay results from patent US20240076406A1 (NATIONAL RESEARCH COUNCIL OF CANADA, published 2024).
One block for each binder: values may come before it.

What was measured:
[1] = target: T1, hCA-IX ECD dimer (dimeric extracellular domain of hCA-IX) (human, UniProt Q16790 38-414); test: cell-based or functional assay
[2] = target: hCA-IX-ECD monomeric (monomeric parental CA-IX extracellular domain) (human, UniProt Q16790 38-414); test: SPR; CA-IX immobilized on SA sensor chip, VHH injected
Procedure: (§1) In vitro binding affinity/SPR. To evaluate the binding affinity (KD) of the VHH only format of the 4 single domain antibodies, CA-IX monomer and dimer were immobilized on SA sensor chip (GE Healthcare) and serial dilutions of the sdAbs were injected over the surface (FIG. 3A).

[3] = target: T1, hCA-IX ECD dimer (dimeric extracellular …); test: as above
Procedure: as §1

mouse CA-IX [4] = target: T2, mouse CA-IX (mouse, UniProt Q8VHB5 32-390, limits assumed); test: ELISA on purified protein, binding above background
T2 sequence (Q8VHB5 32-390 limits assumed): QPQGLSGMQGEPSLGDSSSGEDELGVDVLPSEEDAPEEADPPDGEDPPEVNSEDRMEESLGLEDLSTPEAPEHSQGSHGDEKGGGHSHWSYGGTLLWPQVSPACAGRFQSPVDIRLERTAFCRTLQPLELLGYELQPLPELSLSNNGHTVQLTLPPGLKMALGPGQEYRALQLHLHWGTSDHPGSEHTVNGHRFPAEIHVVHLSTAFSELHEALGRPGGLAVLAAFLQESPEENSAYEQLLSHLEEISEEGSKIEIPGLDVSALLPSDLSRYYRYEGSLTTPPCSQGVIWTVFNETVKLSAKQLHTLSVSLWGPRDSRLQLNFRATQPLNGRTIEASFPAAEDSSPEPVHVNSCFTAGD

human CA-II = human CA-II (human, UniProt P00918 1-260); test: as above
human CA-IV = target: T3, human CA-IV (human, UniProt P22748 19-283, limits assumed); test: as above
T3 construct: also called carbonic anhydrase IV
T3 sequence (P22748 19-283 limits assumed): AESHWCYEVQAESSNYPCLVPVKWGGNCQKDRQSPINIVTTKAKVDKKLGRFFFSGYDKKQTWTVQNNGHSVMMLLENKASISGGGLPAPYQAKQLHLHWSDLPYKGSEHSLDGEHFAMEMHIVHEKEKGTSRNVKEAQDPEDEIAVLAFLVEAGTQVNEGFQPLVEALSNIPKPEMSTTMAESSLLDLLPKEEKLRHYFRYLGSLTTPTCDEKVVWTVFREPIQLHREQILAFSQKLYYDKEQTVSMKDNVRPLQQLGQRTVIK

human CA-XII = target: T4, human CA-XII (human, UniProt O43570 25-291, limits assumed); test: as above
T4 construct: also called carbonic anhydrase XII
T4 sequence (O43570 25-291 limits assumed): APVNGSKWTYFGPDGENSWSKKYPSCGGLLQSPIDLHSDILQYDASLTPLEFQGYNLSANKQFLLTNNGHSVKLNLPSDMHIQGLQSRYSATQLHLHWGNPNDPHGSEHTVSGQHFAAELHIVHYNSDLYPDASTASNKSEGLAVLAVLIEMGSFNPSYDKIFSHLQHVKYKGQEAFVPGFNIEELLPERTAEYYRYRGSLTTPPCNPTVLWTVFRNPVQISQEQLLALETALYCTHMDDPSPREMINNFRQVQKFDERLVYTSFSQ

human CA-XIV = target: T5, human CA-XIV (human, UniProt Q9ULX7 16-290, limits assumed); test: as above
T5 construct: also called carbonic anhydrase XIV
T5 sequence (Q9ULX7 16-290 limits assumed): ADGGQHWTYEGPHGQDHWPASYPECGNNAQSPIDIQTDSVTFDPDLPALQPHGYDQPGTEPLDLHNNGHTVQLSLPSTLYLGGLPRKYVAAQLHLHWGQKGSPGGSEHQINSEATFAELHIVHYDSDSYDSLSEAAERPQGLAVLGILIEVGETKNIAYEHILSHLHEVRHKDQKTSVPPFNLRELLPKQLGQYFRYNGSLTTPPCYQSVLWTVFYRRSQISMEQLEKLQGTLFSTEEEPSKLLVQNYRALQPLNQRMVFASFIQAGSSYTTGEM

mouse CA-IX [5] = target: T2, mouse CA-IX; test: ELISA on purified protein, 500 nM VHH, binding above background
Procedure: Cross reactivity and CA-IX specificity. Binding specificity and species cross reactivity of two sdAb were tested in an ELISA assay using purified proteins for human, mouse, cynomolgus monkey and dog CA-IX.

IC50 (hCA-IX in vitro enzyme activity, 4Mu-Ac hydrolysis) [1]: 0.0484 µM (unit not printed; the text gives the values in nM)
logIC50 (hCA-IX in vitro enzyme activity, 4Mu-Ac hydrolysis) [1]: -1.13 log10 of IC50 (IC50 in µM; unit not printed)
Kd [2]: 234 nM
Kd [3]: 176 nM
binding result (mouse CA-IX [4]): no binding (tested: 500 nM)
binding result (human CA-II): no binding (tested: 500 nM)
binding result (human CA-IV): no binding (tested: 500 nM)
binding result (human CA-XII): no binding (tested: 500 nM)
binding result (human CA-XIV): no binding (tested: 500 nM)
B1: sdCA9-2-VHH (VHH)
VHH: QVKLEESGGDLVQPGGSLRLSCAASGFTLDYYAIGWFRQAPGKEREGVSCFSSVDGSTYYADSVKGRFTISRDNAKNMVYLQMNSLKPEDTAIYYCAAELYGELGVATVQAMCRLTTPGGDYWGQGTQVTVSS
notes: Llama VHH expressed in E. coli from the pSJF2 vector and purified by IMAC

Kd [2]: 314 nM
Kd [3]: 341 nM
B2: sdCA9-3-VHH (VHH)
VHH: QVQLVESGGGLVQAGDSLRLSCAASGGTFSRYGMGWFRQAPGKEREFVAAISGTGLNTYYMDSVKGRFTISRDNAENTVYLQMNSLKPEDTAVYYCARDRGGVEYDYWGQGTQVTVSS
notes: Llama VHH expressed in E. coli from the pSJF2 vector and purified by IMAC; also called sdCA9-3-VHH-VHH

IC50 (hCA-IX in vitro enzyme activity, 4Mu-Ac hydrolysis) [1]: 0.111 µM (unit not printed; the text gives the values in nM)
logIC50 (hCA-IX in vitro enzyme activity, 4Mu-Ac hydrolysis) [1]: -0.954 log10 of IC50 (IC50 in µM; unit not printed)
Kd [2]: 28.9 nM
Kd [3]: 37 nM
binding result (human CA-II): no binding (tested: 500 nM)
binding result (human CA-IV): no binding (tested: 500 nM)
binding result (human CA-XII): no binding (tested: 500 nM)
binding result (human CA-XIV): no binding (tested: 500 nM)
binding result (mouse CA-IX [5]): binds
B3: sdCA9-1-VHH (VHH)
VHH: QVQLVESGGGLVQAGGSLRLSCAASGFTFDDWAIGWFRQAPGKEREGVSCISKRHGTTHYADSVKGRFTISSDNAKNTVYLRMNGLKPEDTAVYYCAASSWGSCTVATMRDVDRYDYDYWGQGTQVTVSS
notes: as for B1
